In this test the target is human P-selectin-Ig chimera (human) (UniProt P16109). Nature of the test: SPR (Biacore): biotinylated ligand on streptavidin chip, P-selectin-Ig flowed at 0.4-100 nM. In general terms: SPR reads the build-up and loss of mass on a sensor chip optically.

Square brackets hold non-standard residues; d marks the D form. Ends that are not written are not given here. F∗ = phenylalanine sulfonate

human P-selectin-Ig chimera (human), sequence (P16109 42-771, change not shown): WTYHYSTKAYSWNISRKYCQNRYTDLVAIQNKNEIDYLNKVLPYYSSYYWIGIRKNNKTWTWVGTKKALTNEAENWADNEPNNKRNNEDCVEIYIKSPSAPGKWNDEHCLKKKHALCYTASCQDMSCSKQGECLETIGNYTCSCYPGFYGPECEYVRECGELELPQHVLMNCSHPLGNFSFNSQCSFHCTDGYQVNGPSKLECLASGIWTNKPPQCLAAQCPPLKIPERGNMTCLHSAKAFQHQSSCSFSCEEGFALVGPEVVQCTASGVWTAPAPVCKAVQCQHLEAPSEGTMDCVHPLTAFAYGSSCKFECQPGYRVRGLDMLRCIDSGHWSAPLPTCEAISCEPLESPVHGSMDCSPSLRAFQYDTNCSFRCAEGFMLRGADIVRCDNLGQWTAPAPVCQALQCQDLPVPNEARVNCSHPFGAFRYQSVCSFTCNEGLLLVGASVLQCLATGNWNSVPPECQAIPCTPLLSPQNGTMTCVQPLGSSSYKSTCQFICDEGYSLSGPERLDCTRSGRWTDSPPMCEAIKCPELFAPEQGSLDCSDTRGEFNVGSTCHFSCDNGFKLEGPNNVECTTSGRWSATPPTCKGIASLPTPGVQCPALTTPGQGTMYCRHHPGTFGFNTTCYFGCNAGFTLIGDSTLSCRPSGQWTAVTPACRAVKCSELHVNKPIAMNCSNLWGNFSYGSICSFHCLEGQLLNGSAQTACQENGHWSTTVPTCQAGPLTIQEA

B1: GSnP-6 (peptide)
peptide: KE[F∗]E[F∗]LD[F∗]DFLPET(Neu5Acα2‑3Galβ1‑4(Fucα1-3)GlcNAcβ1‑6(Galβ1-3)GalNAcα)EPL
Molecule B1 registered a Kd of 27 nM.

A word on the Kd: it is a measure of binding affinity in units of concentration.

The values above are taken from patent US20240293553A1, “P-SELECTIN INHIBITORS AND USES THEREOF” (Beth Israel Deaconess Medical Center, Inc., priority 2021, published 2024).
